# Source: the RNAGym collection of RNA variant scans (doi:10.1073/pnas.2313332121)
# This sample holds only a part of the variants without activity.
# B1: TPR 5TU (parent)
# chain: GGAUCUUCUCGAUCUAACAAAAAAGACAAAUCUGCCACAAAGCUUGAGAGCAUCUUCGGAUGCAGAGGCGGCAGCCUUCGGUGGCGCGAUAGCGCCAACGUUCUCAACUAUGACACGCAAAACGCGUGCUCCGUUGAAUGGAGUUUAUCAUG
# Variants of: B1
# Assay: polymerase ribozyme fitness, log enrichment relative to wild type (log ratio); higher = more active; in vitro selection for triplet polymerase activity
# Summary of the method: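 One round of in vitro selection, in triplicate, was applied to PCR-built, transcribed mutant libraries of each subunit of a heterodimeric triplet polymerase ribozyme. The steps were annealing with a biotinylated primer, partner subunit and triplets, incubation frozen at −7 °C, gel excision of extended constructs, streptavidin-bead capture and RT-PCR. Fitness is the logarithm, base 2, of genotype enrichment over wild-type enrichment from inverse-variance-weighted replicate averages of Illumina-sequenced inputs and outputs, keeping genotypes with ≥10 input reads and ≥1 read per output.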
row,Variant,polymerase ribozyme fitness (log ratio)
1,G46U C85G,-1.84
2,A47C U77G U130G,≤ -4.2
3,A47C C54U G84A U109G,-1.84
4,A47U G141A,-1.46
5,A47C G92U C105U C131G,≤ -4.2
6,G48A G133U,-3.81
7,G46C C57A A66U A113C,≤ -4.2
8,A47C G141A,-1.5
9,G46U G84C C87G A150G,≤ -4.2
10,G48A C57U G83C U101C,-2.63
11,G48A A52U U56A U78A A98U U139C,≤ -4.2
12,G46C G59A U82A C85G A110C A113U G126U G128A,≤ -4.2
13,A47C G86A C149U,-1.64
14,A47C U55A A60G,-0.228
15,G48A C57A C125U,-1.74
16,G48A G59A G86A U104G A110U,≤ -4.2
17,G46C U55G G58U,-0.983
18,G46A U53A G59A A66C U90C A91U C108G G133C,≤ -4.2
19,A47G G50U G94U G141C,-2.22
20,G46A U53A G83A U90A G92A U134A,≤ -4.2
21,A47G G58C G112C,-3.97
22,A47C A60G C85A,-2.83
23,A47U C54A,-1.93
24,G46U U82C C95U,-0.628

row,Variant,polymerase ribozyme fitness (log ratio)
1,G48A G50C,-3.83
2,G46U C54U A73U,-3.31
3,G46C G58C G83C C125A,-4.17
4,G48A A52G G83U U101A C131A U148A,≤ -4.2
5,A47G C123G U151C,-4.15
6,G46U G83U A91U A106U U148C,≤ -4.2
7,A47U C51A G58A G80A G83A C103U,≤ -4.2
8,A47G U56A U134G,-2.17
9,G46U C57G G70C U78G C87U G88U G143A U144A,≤ -4.2
10,G46C U102C G136U,≤ -4.2
11,G48A G62A C96A C132G U134G A147C,≤ -4.2
12,A47G C123U C129G,-3.23
13,A47C A52G G68C A91C,≤ -4.2
14,G48A G84A A107C C118G,≤ -4.2
15,G46C U56A G84A G133C,-2.71
16,A47C G59A,0.309
17,A47C C54U U55A U101C,0.0498
18,G48A A113G A147G G152C,≤ -4.2
19,G48A C76A G94C A106G U127A G141C,≤ -4.2
20,G48A C54A U55G G58U A97G,-3.22
21,A47G C96U G124C,-1.06
22,G48A A52U G86U,≤ -4.2
23,G46A U55A G58C G84C,-2.84
24,G46U C51G C54U,≤ -4.2

row,Variant,polymerase ribozyme fitness (log ratio)
1,A47G U78A G81U G86C U127G A138C,≤ -4.2
2,A47G G84U U135A,-2.45
3,A47C G58C A64U U104C A107G,≤ -4.2
4,G48A G50A C54A C93G U104A,≤ -4.2
5,A47C A52G U77G G94U C99U,≤ -4.2
6,G46U G59A A60C,-2.54
7,G46A U53A U77A G80A C85A A98U U102C C132G A138G,≤ -4.2
8,A47U U101G C116G,-2.38
9,A47C A66C G83C U104C G126C U130C C132G A138C,≤ -4.2
10,A47C C96U A107U,-3.57
11,A47U C57A,0.807
12,A47C G48C G74C U78G G143U,≤ -4.2
13,G46C G50C A89G A107C G152C,≤ -4.2
14,A47U G68U,≤ -4.2
15,G46C G70A C75G A119C,≤ -4.2
16,A47C C93A A107G G140U,≤ -4.2
17,A47U U56A C99G A121C,-2.02
18,A47U G48C,-1.39
19,A47G C87U C99U,-1.24
20,G48A C85A C123U U134C,-1.46
21,G48A G86U C95U C123A,-2.89
22,G48A C99U U111A A137G A147C,≤ -4.2
23,G48A A106G,-1.77
24,A47U C69U C93A A107C A115C,≤ -4.2

row,Variant,polymerase ribozyme fitness (log ratio)
1,A47G A49U C103G,≤ -4.2
2,A47U A60C C103G A107G,≤ -4.2
3,A47G A91G A97G A98C U134G U139A,≤ -4.2
4,A47G G84U C149U,-3.35
5,G46C G86A,-1.59
6,A47C G59A C72U G81C A89G G128C U134C,≤ -4.2
7,G48A C85U A97U U130C A150U,≤ -4.2
8,A47U A52U C93A C125G U135C,≤ -4.2
9,A47C U53C C57A C72G A73C U78C C79U C96G C129A A150G,≤ -4.2
10,A47G A49U G50C C57U A107C A150C,≤ -4.2
11,A47C G83A C99U A120U,-3.03
12,G46C A66C C85U C93G C118U,≤ -4.2
13,A47C G126A,0.0505
14,A47U C75U,-1.41
15,G46U G59C C85A A115U,-4.01
16,G46A G59C C76U C96U C116U,≤ -4.2
17,A47G A52G G58A A60G G62C U78G G88C,≤ -4.2
18,G46C A47G G71A C85U G88C,≤ -4.2
19,A47C U127C,-1.6
20,G48A G59C C63U G86C,-3.98
21,A47U G50C C93A C96G,≤ -4.2
22,A47G C87U,0.257
23,G46C C96A C123G,-1.48
24,G46A U53G,-3.49

row,Variant,polymerase ribozyme fitness (log ratio)
1,G46C C76U,≤ -4.2
2,G46A G84A A119C G136A A150G,-3.68
3,G48A U55G A142C,-2.84
4,G46C G50U G68A C76A C85U U130G,≤ -4.2
5,G48A A49G C54U U90G G92U C99U A121C U151A,≤ -4.2
6,A47U G84C C93U,≤ -4.2
7,A47U U56A C87G A115C G141A,-3.84
8,A47C A60G C93A C95A C96U U139G,≤ -4.2
9,G46A U55A,-0.993
10,G48A C85A A89U A98U A113G G117A,≤ -4.2
11,G48A C57G A60G C63A C99G,≤ -4.2
12,A47U U77C C85A C93G A107U,≤ -4.2
13,G46U G88U,≤ -4.2
14,A47G G83C U134A G140U,-4.17
15,G46A G81A G136A U146A,0.373
16,G48A C57A G92A,-3.32
17,A47G U53A,-0.375
18,A47C C85U,-1.58
19,G48A G136U,-2.5
20,A47C C57U G67C C69A A91U C149U,≤ -4.2
21,A47C C57A C93U,-1.3
22,A47G C51U C87U,-0.414
23,G48A C51U C54A U82G A120U,-3.66
24,A47U G50A G84U A98U,-3.28

row,Variant,polymerase ribozyme fitness (log ratio)
1,A47G C63G G92U C93U,-1.34
2,A47C A122U,-1.45
3,A47G A115C,-0.724
4,A47C C63U C79A G80A G86C U102C,≤ -4.2
5,A47U G80A A91C,≤ -4.2
6,A47U G62C G84U,-3.86
7,G46C U61G U78A C93A,≤ -4.2
8,A47C A49C G65A G84A A113G G141A,≤ -4.2
9,G48A G67A U77C A97U U145G A150U,≤ -4.2
10,A47C A73G,-0.266
11,G48A A52U C75U A91G,≤ -4.2
12,G46C C85U A110U,-4.17
13,A47U U53A,-1.33
14,A47C C87U,-0.109
15,A47G U90A C95A A98G A138U A147C,≤ -4.2
16,A47C A60U G80U C93U,≤ -4.2
17,A47C G48A G124U,-3.59
18,A47U A49G G141A U145A,≤ -4.2
19,A47U G48C G71C G94A C108G G124C G141A,≤ -4.2
20,A47G G140A,-3.51
21,G48A C149U,-1.46
22,A47C G59C G86A,≤ -4.2
23,A47G G84C,-2.56
24,A47G G84U,-1.59

row,Variant,polymerase ribozyme fitness (log ratio)
1,A47C C95U C96U C118U C131U,-1.83
2,A47G U55A C63G G84C,≤ -4.2
3,G46U C87A G88A G143U U148A,≤ -4.2
4,G46U C69G,-0.758
5,A47G G86U G88C U109G,≤ -4.2
6,A47G C93G U144A,-2.58
7,G46U C99A,-3.99
8,A47U C96G C116U,-0.28
9,A47U G126C,-0.0812
10,G46A G68C G83C A147U,≤ -4.2
11,G48A G83C,-1.78
12,G46A G68C A89C G124A,≤ -4.2
13,A47U G48A U146G,-2.73
14,A47U A89G C116U G133U A138C,-4.12
15,G46U G68C G94C,≤ -4.2
16,A47U U55G,-1.03
17,A47U U55A,-0.542
18,G48A G59C,-0.874
19,G48A G59A,-0.452
20,A47G A52C A73G C76G C87G A98G,≤ -4.2
21,A47C C93A A106U U109G,≤ -4.2
22,G46C U109G,-1.81
23,A47U U55A A89G A120U U144G,-0.697
